In PMC2440032 (2008):

Molecular target: porcine stomach mucin (porcine)
Assay: SPR

Question: Which Kd does the source give for YASPKCFRYPNGVLACT [odorranalectin] here?
Answer: 1910 nM
